This passage reports protein stability index results from the supplement of paper PMC10567573.

The chains are these.
B1: C22orf31 (parent)
chain: YSLELGKAIKQKLWEALCSQGAIS
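Note: lentivirally expressed fusions sorted by FACS into six bins by GFP to DsRed ratio, PSI derived from sequencing read proportions per bin multiplied by bin number.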

The variants in the series derive from B1. Briefly: protein stability index of a GFP-peptide fusion (GPS, HEK-293T) (PSI 1-6); higher = more stable. Particulars: c terminus: a fixed tail appended.
In the case of YSLELWKAIKQKLWEALCSQGAIS [G6W], the protein stability index was determined as 3.02. YCLELGKAIKQKLWEALCSQGAIS [S2C]: the protein stability index was 2.15. Next, YQLELGKAIKQKLWEALCSQGAIS [S2Q]: 1.57; YVLELGKAIKQKLWEALCSQGAIS [S2V]: 1.12. On to YALELGKAIKQKLWEALCSQGAIS [S2A], for which the protein stability index stood at 1.79. On to YKLELGKAIKQKLWEALCSQGAIS [S2K], for which the protein stability index amounted to 2.68. With YTLELGKAIKQKLWEALCSQGAIS [S2T] the figure was 2.86; with YNLELGKAIKQKLWEALCSQGAIS [S2N], 2.79; with YHLELGKAIKQKLWEALCSQGAIS [S2H], 2.43. Next, YYLELGKAIKQKLWEALCSQGAIS [S2Y]: 3.28; YELELGKAIKQKLWEALCSQGAIS [S2E]: 1.59; YPLELGKAIKQKLWEALCSQGAIS [S2P]: 2.3.

As to YRLELGKAIKQKLWEALCSQGAIS [S2R], the protein stability index was 2.42. Next, YDLELGKAIKQKLWEALCSQGAIS [S2D]: 1.56; YGLELGKAIKQKLWEALCSQGAIS [S2G]: 2.35; YMLELGKAIKQKLWEALCSQGAIS [S2M]: 2.38. In the case of YSLELGKANKQKLWEALCSQGAIS [I9N], the protein stability index worked out at 2.07.

On to YSLELGKAMKQKLWEALCSQGAIS [I9M], for which the protein stability index worked out at 1.07. Regarding YSLELGKAFKQKLWEALCSQGAIS [I9F], the protein stability index amounted to 2.02. As to YSLELGKAPKQKLWEALCSQGAIS [I9P], the protein stability index stood at 1.99.

Regarding YSLELGKAVKQKLWEALCSQGAIS [I9V], the protein stability index worked out at 2.26. As to YSLELGKAKKQKLWEALCSQGAIS [I9K], the protein stability index came out at 2.24. On to YSLELGKASKQKLWEALCSQGAIS [I9S], for which the protein stability index turned out to be 1.97. With YSLELGKAEKQKLWEALCSQGAIS [I9E] the figure was 2.97; with YSLELGKADKQKLWEALCSQGAIS [I9D], 2.39; with YSLELGKAYKQKLWEALCSQGAIS [I9Y], 3.02. With YSLELGKACKQKLWEALCSQGAIS [I9C] the figure was 1.79; with YSLELGKAGKQKLWEALCSQGAIS [I9G], 1.84. Next, YSLELGKAAKQKLWEALCSQGAIS [I9A]: 1.35.

Consider YSLELGKAQKQKLWEALCSQGAIS [I9Q], for which the protein stability index was 1.94. Regarding YSLELGKAHKQKLWEALCSQGAIS [I9H], the protein stability index amounted to 2.07. On to YSLELGKATKQKLWEALCSQGAIS [I9T], for which the protein stability index worked out at 2.38.

YSLELGKARKQKLWEALCSQGAIS [I9R]: the protein stability index worked out at 1.87. For YSLELGKAIKQDLWEALCSQGAIS [K12D], the protein stability index was found to be 1.56. With YSLELGKAIKQSLWEALCSQGAIS [K12S] the figure was 1.39; with YSLELGKAIKQHLWEALCSQGAIS [K12H], 1.98; with YSLELGKAIKQQLWEALCSQGAIS [K12Q], 2.26. In the case of YSLELGKAIKQLLWEALCSQGAIS [K12L], the protein stability index came to 2.66.

For YSLELGKAIKQTLWEALCSQGAIS [K12T], the protein stability index stood at 2.87. Consider YSLELGKAIKQFLWEALCSQGAIS [K12F], for which the protein stability index worked out at 2.11. With YSLELGKAIKQGLWEALCSQGAIS [K12G] the figure was 1.07; with YSLELGKAIKQCLWEALCSQGAIS [K12C], 2.03; with YSLELGKAIKQRLWEALCSQGAIS [K12R], 1.53.

For YSLELGKAIKQILWEALCSQGAIS [K12I], the protein stability index came out at 3.58. On to YSLELGKAIKQNLWEALCSQGAIS [K12N], for which the protein stability index amounted to 1.93. With YSLELGKAIKQPLWEALCSQGAIS [K12P] the figure was 1.51; with YSLELGKAIKQALWEALCSQGAIS [K12A], 3.38. Next, YSLELGKAIKQELWEALCSQGAIS [K12E]: 1.85; YSLLLGKAIKQKLWEALCSQGAIS [E4L]: 2.69. Regarding YSLSLGKAIKQKLWEALCSQGAIS [E4S], the protein stability index turned out to be 1.88.

Regarding YSLMLGKAIKQKLWEALCSQGAIS [E4M], the protein stability index was 2.42. YSLKLGKAIKQKLWEALCSQGAIS [E4K]: the protein stability index was found to be 3.04. With YSLVLGKAIKQKLWEALCSQGAIS [E4V] the figure was 3.23.

As to YSLGLGKAIKQKLWEALCSQGAIS [E4G], the protein stability index is 1.56. Next, YSLFLGKAIKQKLWEALCSQGAIS [E4F]: 3.85; YSLQLGKAIKQKLWEALCSQGAIS [E4Q]: 3.4. In the case of YSLNLGKAIKQKLWEALCSQGAIS [E4N], the protein stability index is 3.57.

YSLYLGKAIKQKLWEALCSQGAIS [E4Y]: the protein stability index is 3.11. Consider YSLALGKAIKQKLWEALCSQGAIS [E4A], for which the protein stability index was 2.96.

As for YSLILGKAIKQKLWEALCSQGAIS [E4I], the protein stability index came to 3.45. With YSLHLGKAIKQKLWEALCSQGAIS [E4H], the protein stability index was found to be 2.7. Next, YSLCLGKAIKQKLWEALCSQGAIS [E4C]: 2.69; YSLWLGKAIKQKLWEALCSQGAIS [E4W]: 3.56. On to YSLDLGKAIKQKLWEALCSQGAIS [E4D], for which the protein stability index was found to be 3.44.

Take YSYELGKAIKQKLWEALCSQGAIS [L3Y]: the protein stability index is 2.44. YSMELGKAIKQKLWEALCSQGAIS [L3M]: the protein stability index came to 2.18. With YSHELGKAIKQKLWEALCSQGAIS [L3H] the figure was 1.66; with YSKELGKAIKQKLWEALCSQGAIS [L3K], 2.03.

Regarding YSVELGKAIKQKLWEALCSQGAIS [L3V], the protein stability index was 3.15.

In the case of YSPELGKAIKQKLWEALCSQGAIS [L3P], the protein stability index worked out at 1.64. For the variant YSGELGKAIKQKLWEALCSQGAIS [L3G], the protein stability index worked out at 1.43. With YSAELGKAIKQKLWEALCSQGAIS [L3A], the protein stability index is 2.39. YSIELGKAIKQKLWEALCSQGAIS [L3I]: the protein stability index came to 1.79.

On to YSSELGKAIKQKLWEALCSQGAIS [L3S], for which the protein stability index is 1.75. As to YSNELGKAIKQKLWEALCSQGAIS [L3N], the protein stability index worked out at 2.19. Next, YSFELGKAIKQKLWEALCSQGAIS [L3F]: 2.43; YSDELGKAIKQKLWEALCSQGAIS [L3D]: 1.38; YSEELGKAIKQKLWEALCSQGAIS [L3E]: 2.53. Next, YSTELGKAIKQKLWEALCSQGAIS [L3T]: 1.89; VSLELGKAIKQKLWEALCSQGAIS [Y1V]: 2.56. On to ESLELGKAIKQKLWEALCSQGAIS [Y1E], for which the protein stability index came out at 1.22. With CSLELGKAIKQKLWEALCSQGAIS [Y1C], the protein stability index was 2.58. With RSLELGKAIKQKLWEALCSQGAIS [Y1R] the figure was 2.88; with KSLELGKAIKQKLWEALCSQGAIS [Y1K], 3.44. With NSLELGKAIKQKLWEALCSQGAIS [Y1N] the figure was 2.16; with LSLELGKAIKQKLWEALCSQGAIS [Y1L], 2.91.

Regarding PSLELGKAIKQKLWEALCSQGAIS [Y1P], the protein stability index is 2.12. With ASLELGKAIKQKLWEALCSQGAIS [Y1A] the figure was 1.69; with HSLELGKAIKQKLWEALCSQGAIS [Y1H], 2.79; with ISLELGKAIKQKLWEALCSQGAIS [Y1I], 3.2. Next, QSLELGKAIKQKLWEALCSQGAIS [Y1Q]: 2.81; FSLELGKAIKQKLWEALCSQGAIS [Y1F]: 2.8.

Regarding DSLELGKAIKQKLWEALCSQGAIS [Y1D], the protein stability index is 1.87. Next, TSLELGKAIKQKLWEALCSQGAIS [Y1T]: 3.1.
